Laboratory results as given in patent publication US20170022281A1 (AbbVie / Abbott, published 2017).
Numbering of substitutions follows the chain as printed.

T1: mouse PRLR on Baf3-mPRLR cells (mouse, UniProt Q08501 20-608)
T1 sequence (looked up): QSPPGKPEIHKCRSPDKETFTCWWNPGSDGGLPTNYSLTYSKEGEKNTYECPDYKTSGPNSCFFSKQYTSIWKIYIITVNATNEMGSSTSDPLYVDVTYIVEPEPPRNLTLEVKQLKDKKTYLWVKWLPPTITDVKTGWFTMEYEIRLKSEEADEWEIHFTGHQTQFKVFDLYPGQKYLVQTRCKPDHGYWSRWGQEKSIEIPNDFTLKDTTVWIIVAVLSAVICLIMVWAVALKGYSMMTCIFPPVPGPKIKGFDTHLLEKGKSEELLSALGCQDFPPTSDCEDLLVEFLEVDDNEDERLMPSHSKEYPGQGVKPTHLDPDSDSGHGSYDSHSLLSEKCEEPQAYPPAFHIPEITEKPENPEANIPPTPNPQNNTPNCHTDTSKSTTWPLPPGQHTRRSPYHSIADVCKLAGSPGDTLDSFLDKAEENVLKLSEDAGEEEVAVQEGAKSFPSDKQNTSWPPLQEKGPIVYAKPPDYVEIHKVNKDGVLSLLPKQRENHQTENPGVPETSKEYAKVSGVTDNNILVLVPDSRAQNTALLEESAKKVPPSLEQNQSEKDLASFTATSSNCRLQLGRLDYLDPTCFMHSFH

T2: human PRLR on cells (human, UniProt P16471 25-622)
T2 sequence: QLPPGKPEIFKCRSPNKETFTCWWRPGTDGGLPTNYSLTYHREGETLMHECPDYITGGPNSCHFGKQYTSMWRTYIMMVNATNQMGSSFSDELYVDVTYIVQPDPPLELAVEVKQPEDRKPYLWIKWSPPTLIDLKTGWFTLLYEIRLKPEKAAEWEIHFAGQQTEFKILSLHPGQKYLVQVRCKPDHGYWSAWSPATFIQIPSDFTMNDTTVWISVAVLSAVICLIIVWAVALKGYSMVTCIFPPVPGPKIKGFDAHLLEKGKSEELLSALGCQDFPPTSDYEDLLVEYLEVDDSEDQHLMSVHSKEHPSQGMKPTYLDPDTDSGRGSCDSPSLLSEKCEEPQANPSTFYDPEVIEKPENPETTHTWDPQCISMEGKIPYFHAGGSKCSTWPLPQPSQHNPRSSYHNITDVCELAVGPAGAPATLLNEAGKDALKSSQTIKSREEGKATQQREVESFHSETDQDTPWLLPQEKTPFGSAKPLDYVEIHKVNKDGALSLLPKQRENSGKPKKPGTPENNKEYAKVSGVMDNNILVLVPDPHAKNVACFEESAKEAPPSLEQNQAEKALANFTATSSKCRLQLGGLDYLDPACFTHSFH

T3: human PRLR ECD-Fc fusion protein (human, UniProt P16471 25-233)
T3 construct: not shown: Fc region (captured by goat anti-human Fc)
T3 sequence: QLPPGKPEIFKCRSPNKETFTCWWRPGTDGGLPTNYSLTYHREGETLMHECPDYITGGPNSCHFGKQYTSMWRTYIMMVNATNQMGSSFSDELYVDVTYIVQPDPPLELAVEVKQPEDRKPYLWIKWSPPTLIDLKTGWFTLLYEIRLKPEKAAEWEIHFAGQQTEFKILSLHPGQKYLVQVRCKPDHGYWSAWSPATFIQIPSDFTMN

T4: cyno PRLR ECD-his6 protein (cyno)
T4 chain: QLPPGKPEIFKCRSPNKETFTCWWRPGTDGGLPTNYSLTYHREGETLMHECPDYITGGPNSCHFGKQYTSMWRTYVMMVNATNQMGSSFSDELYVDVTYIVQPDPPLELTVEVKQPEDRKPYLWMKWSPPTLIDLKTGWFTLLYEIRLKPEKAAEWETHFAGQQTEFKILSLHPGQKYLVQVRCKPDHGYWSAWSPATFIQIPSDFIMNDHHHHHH

T5: cyno PRLR (Biacore antigen) (cyno, UniProt A0A2K5WXK1 25-234)
T5 construct: also called cyPRLR
T5 sequence: T4 chain

T6: human PRLR (Biacore antigen) (human, UniProt P16471 25-234, limits assumed)
T6 construct: The construct injected over captured antibody is not described (a soluble form is likely); also called huPRLR
T6 sequence: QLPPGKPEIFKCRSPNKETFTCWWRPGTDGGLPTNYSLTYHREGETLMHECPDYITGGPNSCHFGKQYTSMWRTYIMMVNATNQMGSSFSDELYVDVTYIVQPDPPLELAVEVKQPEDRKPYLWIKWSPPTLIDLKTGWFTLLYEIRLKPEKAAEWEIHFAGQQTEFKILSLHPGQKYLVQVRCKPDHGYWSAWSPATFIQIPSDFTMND

B1: Ab44 (antibody, human IgG1, kappa, V domains shown)
VH: EVQLVQSGAEVKKPGASVKVSCKASGYTFTDYNIHWVRQAPGQGLEWMGYIYPNNDGTGYNQKFKSRVTMTTDTSTSTAYMELRSLRSDDTAVYYCARGDGNYVGDMDYWGQGTTVTVSS
VL: DIQMTQSPSSLSASVGDRVTITCRASENIYSYLAWYQQKPGKAPKLLIYNAKTLAEGVPSRFSGSGSGTDFTLTISSLQPEDFATYYCQHHYATPFTFGQGTKLEIKR
notes: humanized from Ab8; G1; also called Ab3 HC.1 and Ab3 LC.1
B2: Ab51 (antibody, human IgG1, kappa, V domains shown)
VH: B1 VH with M48I, N61A, F64L, K65Q, S66G, T72V
VL: B1 VL with A43P, I48V
notes: humanized from Ab8; G1; also called Ab3 HC.1b and Ab3 LC.1a
B3: Ab50 (antibody, human IgG1, kappa, V domains shown)
VH: B1 VH with M48I, N61A, F64L, K65Q, S66G, T72V
VL: B1 VL
notes: humanized from Ab8; G1; also called Ab3 HC.1b and Ab3 LC.1
B4: Ab52 (antibody, human IgG1, kappa, V domains shown)
VH: B1 VH with M48I, N61A, F64L, K65Q, S66G, T72V
VL: B1 VL with I48V
notes: humanized from Ab8; G1; also called Ab3 HC.1b and Ab3 LC.1b
B5: Ab47 (antibody, human IgG1, kappa, V domains shown)
VH: B1 VH with M48I, V68A, M70L, T72V, T74N
VL: B1 VL
notes: humanized from Ab8; G1; also called Ab3 HC.1a and Ab3 LC.1
B6: Ab53 (antibody, human IgG1, kappa, V domains shown)
VH: EVQLVQSGAEVKKPGSSVKVSCKASGYTFTSYWIHWVRQAPGQGLEWIGEIDPSDSYTNYNQKFKGRVTITVDKSTSTAYMELSSLRSEDTAVYYCARSFFTNWFAYWGQGTLVTVSS
VL: DVVMTQTPLSLSVTPGQPASISCRSSQSLVHSNGNTYLHWYLQKPGQSPQLLIYKVSNRFSGVPDRFSGSGSGTDFTLKISRVEAEDVGVYFCSQSTHVPFTFGGGTKVEIKR
notes: humanized from Ab7 (back mutations on Ab36); G1; also called Ab4 HC.1b.2 and Ab4 LC.1a
B7: Ab14 (antibody, human IgG1, kappa, V domains shown)
VH: EVQLVQSGAEVKKPGSSVKVSCKASGYTFTTYWMHWVRQAPGQGLEWMGEIDPSDSYSNYNQKFKDRVTITADKSTSTAYMELSSLRSEDTAVYYCARNGGLGPAWFSYWGQGTLVTVSS
VL: DIQMTQSPSSVSASVGDRVTITCKASQYVGTAVAWYQQKPGKAPKLLIYSASNRYTGVPSRFSGSGSGTDFTLTISSLQPEDFATYYCQQYSSYPWTFGGGTKVEIKR
notes: humanized from Ab6; G1; also called Ab1 HC.1 & Ab1 LC.1
B8: Ab16 (antibody, human IgG1, kappa, V domains shown)
VH: B7 VH
VL: EIVMTQSPATLSVSPGERATLSCKASQYVGTAVAWYQQKPGQAPRLLIYSASNRYTGIPARFSGSGSGTEFTLTISSLQSEDFAVYYCQQYSSYPWTFGGGTKVEIKR
notes: humanized from Ab6; G1; also called Ab1 HC.1 and Ab1 LC.2
B9: Ab18 (antibody, human IgG1, kappa, V domains shown)
VH: B7 VH with M48I, V68A, I70L, A72V
VL: B7 VL
notes: humanized from Ab6; G1; also called Ab1 HC.1a and Ab1 LC.1
B10: Ab15 (antibody, human IgG1, kappa, V domains shown)
VH: B7 VH
VL: B7 VL with A43S, G64D, Y87F
notes: humanized from Ab6; G1; also called Ab1 HC.1 and Ab1 LC.1a
B11: chAb9 (antibody, human IgG1, kappa, V domains shown)
VH: EVQLQQSGPELVRPGASVKISCKASGYSFTDYNMHWVKQSHGKSLEWIGYIYPYNGGAGYNQKFKSKATMNVGISSSTAYMELRSLTSEDSAVYYCARGDGNYVGDMDYWGQGTSVTVSS
VL: DIQMTQSPASLSASVGETVTITCRASENIYSYLAWYQQKQGKSPQLLVYNAKTLAEGVPSRFSGSGSGTQFSLKINSLQPEDFGSYYCQHHSGTPFTFGSGTKLEIKT

Assays:
[1] = biological target: cyno PRLR on Baf3-cyPRLR cells (cyno); assay: cell-based or functional assay
[2] = biological target: T1, mouse PRLR on Baf3-mPRLR cells; assay: cell-based or functional assay
human PRLR on cells = biological target: T2, human PRLR on cells; assay: cell-based or functional assay
[3] = biological target: T3, human PRLR ECD-Fc fusion protein; assay: ELISA on ECD
Description: (§1) Plates were blocked for 1 hour with Superblock (Pierce) and washed (3×) with wash buffer (lx PBS (pH 7.4), 0.05% Tween 20). ECD proteins were bound to the appropriate antibody (1 hour) in binding buffer (wash buffer plus 10% Superblock), washed (3×, wash buffer), and then incubated with serial dilutions of antibodies (1 hour) in binding buffer. After washing (3×, wash buffer), secondary antibodies conjugated to HRP were bound (1 hour) in binding buffer, washed (3×, wash buffer), and incubated with TMB substrate (Pierce) to develop signal for 3-5 minutes, stopped with 2N H₂SO₄ and scanned at […]. Curves were fit with GraphPad 5 (Prizm) and EC50's were determined with curve fitting function of GraphPad 5.

[4] = biological target: T4, cyno PRLR ECD-his6 protein; assay: ELISA on ECD
Description: as §1

[5] = biological target: T5, cyno PRLR (Biacore antigen); assay: SPR Biacore
Summary of the method: (§2)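 Association rate, dissociation rate and dissociation constant were measured by surface plasmon resonance on a Biacore instrument. PRLR antigen was tested at 600 nM, 66.67 nM and 7.41 nM, a 3-point, 9-fold dilution series. Constants came from a 1:1 binding model fit (local Rmax, mass-transport term included) in Biacore T200 Evaluation Software.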

[6] = biological target: T6, human PRLR (Biacore antigen); assay: SPR Biacore
Summary of the method: as §2

Row | Binder | Baf3-cyPRLR proliferation IC50 [1] | Baf3-mPRLR proliferation IC50 [2] | Baf3-hPRLR proliferation IC50 (human PRLR on cells) | EC50 [3] | EC50 [4] | Kd [5] | koff [5] | kon [5] | Kd [6] | koff [6] | kon [6]
1 | B1 | 1.76 µg/mL | > 30 µg/mL | 0.3 µg/mL | 0.0435 nM | 0.0945 nM |  |  |  |  |  | 
2 | B2 | 100 µg/mL | > 30 µg/mL | 0.55 µg/mL | 0.287 nM |  |  |  |  |  |  | 
3 | B3 | 41.6 µg/mL | > 30 µg/mL | 0.51 µg/mL | 0.109 nM |  |  |  |  |  |  | 
4 | B4 | 305 µg/mL | > 30 µg/mL | 0.51 µg/mL | 0.0913 nM |  |  |  |  |  |  | 
5 | B5 | 3.01 µg/mL | > 30 µg/mL | 0.4 µg/mL | 0.0819 nM | 0.119 nM |  |  |  |  |  | 
6 | B6 |  |  | 1.03 µg/mL |  |  | 7.8 nM | 0.00089 s⁻¹ | 110000 M⁻¹ s⁻¹ | 8.5 nM | 0.001 s⁻¹ | 120000 M⁻¹ s⁻¹
7 | B7 | 1.15 µg/mL | > 30 µg/mL | 0.3 µg/mL | 0.0329 nM | 0.031 nM |  |  |  | 4.16 nM | 0.00458 s⁻¹ | 1.1e+06 M⁻¹ s⁻¹
8 | B8 | 1.73 µg/mL | > 30 µg/mL | 0.46 µg/mL | 0.0641 nM | 0.0671 nM |  |  |  | 4.05 nM | 0.00562 s⁻¹ | 1.39e+06 M⁻¹ s⁻¹
9 | B9 | 0.4 µg/mL | > 30 µg/mL | 0.15 µg/mL | 0.0675 nM | 0.111 nM |  |  |  | 1.62 nM | 0.00171 s⁻¹ | 1.06e+06 M⁻¹ s⁻¹
10 | B10 | 0.19 µg/mL | > 30 µg/mL | 0.13 µg/mL | 0.0781 nM | 0.0551 nM |  |  |  | 0.837 nM | 0.000972 s⁻¹ | 1.16e+06 M⁻¹ s⁻¹
11 | B11 | 10.4 µg/mL |  | 0.2 µg/mL |  |  |  |  |  |  |  | 
